The target in experiment [1] is T1, SMG-1, full length, SBP-tagged (human, UniProt Q96Q15 1-3661). Put plainly: cryo-EM structure.
The target in the next experiment is SMG-1–8–9 complex (human | , UniProt Q96Q15;Q8ND04;Q9H0W8). Put plainly: negative-stain electron microscopy.
Experiment [2] deals with T1, SMG-1, full length, SBP-tagged. Put plainly: cross-linking.

T1 sequence (Q96Q15 whole entry): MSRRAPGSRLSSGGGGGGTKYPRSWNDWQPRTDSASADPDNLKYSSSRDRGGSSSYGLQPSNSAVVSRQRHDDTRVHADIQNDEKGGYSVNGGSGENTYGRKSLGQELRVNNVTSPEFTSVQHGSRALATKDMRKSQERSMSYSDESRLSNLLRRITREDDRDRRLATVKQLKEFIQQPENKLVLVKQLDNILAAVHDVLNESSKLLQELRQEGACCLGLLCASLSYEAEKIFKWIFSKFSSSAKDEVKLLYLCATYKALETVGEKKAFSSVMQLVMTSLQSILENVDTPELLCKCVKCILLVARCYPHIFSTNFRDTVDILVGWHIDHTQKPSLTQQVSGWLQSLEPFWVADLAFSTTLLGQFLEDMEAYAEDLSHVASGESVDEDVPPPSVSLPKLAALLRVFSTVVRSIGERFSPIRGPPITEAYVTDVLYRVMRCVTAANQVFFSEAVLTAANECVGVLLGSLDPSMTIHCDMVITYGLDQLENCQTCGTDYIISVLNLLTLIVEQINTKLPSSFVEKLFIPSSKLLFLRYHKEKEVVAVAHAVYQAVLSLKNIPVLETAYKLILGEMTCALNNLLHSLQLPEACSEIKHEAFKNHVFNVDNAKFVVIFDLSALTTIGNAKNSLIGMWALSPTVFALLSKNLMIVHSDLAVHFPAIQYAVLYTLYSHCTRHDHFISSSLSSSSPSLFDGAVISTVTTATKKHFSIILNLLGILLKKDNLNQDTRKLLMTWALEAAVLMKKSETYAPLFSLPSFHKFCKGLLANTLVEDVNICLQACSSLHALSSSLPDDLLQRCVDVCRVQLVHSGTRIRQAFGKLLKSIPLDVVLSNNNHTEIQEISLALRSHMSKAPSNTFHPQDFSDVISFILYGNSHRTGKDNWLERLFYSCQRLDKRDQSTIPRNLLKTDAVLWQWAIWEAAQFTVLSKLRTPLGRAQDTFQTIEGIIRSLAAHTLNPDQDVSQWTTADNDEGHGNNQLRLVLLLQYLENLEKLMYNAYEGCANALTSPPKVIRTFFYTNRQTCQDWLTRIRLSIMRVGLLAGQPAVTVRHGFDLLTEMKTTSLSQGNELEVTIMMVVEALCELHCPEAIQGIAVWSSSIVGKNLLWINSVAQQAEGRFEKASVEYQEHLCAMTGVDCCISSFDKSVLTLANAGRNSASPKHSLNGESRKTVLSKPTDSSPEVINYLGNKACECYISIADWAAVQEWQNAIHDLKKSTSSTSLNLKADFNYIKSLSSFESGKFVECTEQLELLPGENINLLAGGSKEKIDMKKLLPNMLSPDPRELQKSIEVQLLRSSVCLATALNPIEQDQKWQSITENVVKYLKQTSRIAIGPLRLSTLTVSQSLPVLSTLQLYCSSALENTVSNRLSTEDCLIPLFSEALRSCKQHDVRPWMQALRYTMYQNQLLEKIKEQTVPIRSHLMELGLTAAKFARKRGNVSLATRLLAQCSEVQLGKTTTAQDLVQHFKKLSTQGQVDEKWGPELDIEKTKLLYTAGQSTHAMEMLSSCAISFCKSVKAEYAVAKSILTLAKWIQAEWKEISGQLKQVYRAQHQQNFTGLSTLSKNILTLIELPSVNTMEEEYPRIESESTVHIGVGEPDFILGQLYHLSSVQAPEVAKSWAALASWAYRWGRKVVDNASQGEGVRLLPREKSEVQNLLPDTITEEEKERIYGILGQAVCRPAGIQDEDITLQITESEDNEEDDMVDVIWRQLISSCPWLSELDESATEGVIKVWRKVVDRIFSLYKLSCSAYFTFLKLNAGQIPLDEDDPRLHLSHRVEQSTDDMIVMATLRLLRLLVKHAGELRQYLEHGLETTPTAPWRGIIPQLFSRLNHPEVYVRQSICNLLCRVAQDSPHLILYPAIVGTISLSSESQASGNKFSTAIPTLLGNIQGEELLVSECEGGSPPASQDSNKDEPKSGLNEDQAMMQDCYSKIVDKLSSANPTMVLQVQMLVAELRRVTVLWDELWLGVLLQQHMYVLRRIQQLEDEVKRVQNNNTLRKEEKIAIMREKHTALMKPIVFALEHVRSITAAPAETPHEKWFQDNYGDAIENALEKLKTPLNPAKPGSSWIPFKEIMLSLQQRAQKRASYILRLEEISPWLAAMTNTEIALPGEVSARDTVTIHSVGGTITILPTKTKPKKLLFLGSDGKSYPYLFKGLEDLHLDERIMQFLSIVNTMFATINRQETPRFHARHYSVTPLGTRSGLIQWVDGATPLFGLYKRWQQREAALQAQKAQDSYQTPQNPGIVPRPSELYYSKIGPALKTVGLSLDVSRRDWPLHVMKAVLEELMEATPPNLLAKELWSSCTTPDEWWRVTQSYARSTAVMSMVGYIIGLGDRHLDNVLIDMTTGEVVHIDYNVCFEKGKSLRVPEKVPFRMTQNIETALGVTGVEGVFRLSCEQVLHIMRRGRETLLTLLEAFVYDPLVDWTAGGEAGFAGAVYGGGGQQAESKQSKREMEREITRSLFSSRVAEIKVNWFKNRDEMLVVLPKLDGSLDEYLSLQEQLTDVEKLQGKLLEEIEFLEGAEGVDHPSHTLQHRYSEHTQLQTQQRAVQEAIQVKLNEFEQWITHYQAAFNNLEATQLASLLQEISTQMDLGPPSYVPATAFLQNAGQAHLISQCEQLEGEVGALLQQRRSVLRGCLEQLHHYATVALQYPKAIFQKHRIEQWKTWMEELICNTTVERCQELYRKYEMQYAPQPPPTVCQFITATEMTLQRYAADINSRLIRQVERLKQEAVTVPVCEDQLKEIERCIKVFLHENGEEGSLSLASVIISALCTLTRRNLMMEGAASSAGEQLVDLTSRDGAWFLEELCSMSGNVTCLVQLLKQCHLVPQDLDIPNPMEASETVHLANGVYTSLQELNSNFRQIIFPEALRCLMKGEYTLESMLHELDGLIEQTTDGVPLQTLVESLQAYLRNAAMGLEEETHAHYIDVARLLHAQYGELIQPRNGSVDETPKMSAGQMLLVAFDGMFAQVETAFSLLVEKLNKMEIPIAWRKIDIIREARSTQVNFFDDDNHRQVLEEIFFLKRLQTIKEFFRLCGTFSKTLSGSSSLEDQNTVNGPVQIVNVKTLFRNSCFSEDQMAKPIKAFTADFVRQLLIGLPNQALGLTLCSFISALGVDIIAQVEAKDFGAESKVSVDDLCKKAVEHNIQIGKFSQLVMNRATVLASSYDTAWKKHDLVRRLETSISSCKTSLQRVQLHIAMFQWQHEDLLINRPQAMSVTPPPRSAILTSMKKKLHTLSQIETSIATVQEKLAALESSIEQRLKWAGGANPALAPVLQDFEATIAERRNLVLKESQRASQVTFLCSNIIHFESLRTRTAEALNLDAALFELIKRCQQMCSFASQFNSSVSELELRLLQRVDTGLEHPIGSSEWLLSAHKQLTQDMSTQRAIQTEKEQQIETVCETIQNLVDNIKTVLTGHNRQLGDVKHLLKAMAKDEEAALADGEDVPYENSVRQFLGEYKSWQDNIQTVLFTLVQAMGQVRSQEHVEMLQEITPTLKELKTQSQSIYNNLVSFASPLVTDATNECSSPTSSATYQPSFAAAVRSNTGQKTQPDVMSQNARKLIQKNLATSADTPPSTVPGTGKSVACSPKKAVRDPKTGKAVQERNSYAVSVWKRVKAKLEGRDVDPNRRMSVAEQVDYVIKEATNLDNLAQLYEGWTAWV
Sequence of SMG-1–8–9 complex (Q96Q15 whole entry, one chain of several): as the sequence (Q96Q15 whole entry) above

B1: UPF1, full length (natural protein)
chain: MSVEAYGPSSQTLTFLDTEEAELLGADTQGSEFEFTDFTLPSQTQTPPGGPGGPGGGGAGGPGGAGAGAAAGQLDAQVGPEGILQNGAVDDSVAKTSQLLAELNFEEDEEDTYYTKDLPIHACSYCGIHDPACVVYCNTSKKWFCNGRGNTSGSHIVNHLVRAKCKEVTLHKDGPLGETVLECYNCGCRNVFLLGFIPAKADSVVVLLCRQPCASQSSLKDINWDSSQWQPLIQDRCFLSWLVKIPSEQEQLRARQITAQQINKLEELWKENPSATLEDLEKPGVDEEPQHVLLRYEDAYQYQNIFGPLVKLEADYDKKLKESQTQDNITVRWDLGLNKKRIAYFTLPKTDSGNEDLVIIWLRDMRLMQGDEICLRYKGDLAPLWKGIGHVIKVPDNYGDEIAIELRSSVGAPVEVTHNFQVDFVWKSTSFDRMQSALKTFAVDETSVSGYIYHKLLGHEVEDVIIKCQLPKRFTAQGLPDLNHSQVYAVKTVLQRPLSLIQGPPGTGKTVTSATIVYHLARQGNGPVLVCAPSNIAVDQLTEKIHQTGLKVVRLCAKSREAIDSPVSFLALHNQIRNMDSMPELQKLQQLKDETGELSSADEKRYRALKRTAERELLMNADVICCTCVGAGDPRLAKMQFRSILIDESTQATEPECMVPVVLGAKQLILVGDHCQLGPVVMCKKAAKAGLSQSLFERLVVLGIRPIRLQVQYRMHPALSAFPSNIFYEGSLQNGVTAADRVKKGFDFQWPQPDKPMFFYVTQGQEEIASSGTSYLNRTEAANVEKITTKLLKAGAKPDQIGIITPYEGQRSYLVQYMQFSGSLHTKLYQEVEIASVDAFQGREKDFIILSCVRANEHQGIGFLNDPRRLNVALTRARYGVIIVGNPKALSKQPLWNHLLNYYKEQKVLVEGPLNNLRESLMQFSKPRKLVNTINPGARFMTTAMYDAREAIIPGSVYDRSSQGRPSSMYFQTHDQIGMISAGPSHVAAMNIPIPFNLVMPPMPPPGYFGQANGPAAGRGTPKGKTGRGGRQKNRFGLPGPSQTNLPNSQASQDVASQPFSQGALTQGYISMSQPSQMSQPGLSQPELSQDSYLGDEFKSQIDVALSQDSTYQGERAYQHGGVTGLSQY
As for B1, the binding result (in experiment [1]; with SMG-1–8–9 complex) was “binds” in each case.

B2: SMG-8 (natural protein)
chain: MAGPVSLRDLLMGASAWMGSESPGGSPTEGGGSAAGGPEPPWREDEICVVGIFGKTALRLNSEKFSLVNTVCDRQVFPLFRHQDPGDPGPGIRTEAGAVGEAGGAEDPGAAAGGSVRGSGAVAEGNRTEAGSQDYSLLQAYYSQESKVLYLLLTSICDNSQLLRACRALQSGEAGGGLSLPHAEAHEFWKHQEKLQCLSLLYLFSVCHILLLVHPTCSFDITYDRVFRALDGLRQKVLPLLKTAIKDCPVGKDWKLNCRPCPPRLLFLFQLNGALKVEPPRNQDPAHPDKPKKHSPKRRLQHALEDQIYRIFRKSRVLTNQSINCLFTVPANQAFVYIVPGSQEEDPVGMLLDQLRSHCTVKDPESLLVPAPLSGPRRYQVMRQHSRQQLSFHIDSSSSSSSGQLVDFTLREFLWQHVELVLSKKGFDDSVGRNPQPSHFELPTYQKWISAASKLYEVAIDGKEEDLGSPTGELTSKILSSIKVLEGFLDIDTKFSENRCQKALPMAHSAYQSNLPHNYTMTVHKNQLAQALRVYSQHARGPAFHKYAMQLHEDCYKFWSNGHQLCEERSLTDQHCVHKFHSLPKSGEKPEADRNPPVLYHNSRARSTGACNCGRKQAPRDDPFDIKAANYDFYQLLEEKCCGKLDHINFPVFEPSTPDPAPAKNESSPAPPDSDADKLKEKEPQTQGESTSLSLALSLGQSTDSLGTYPADPQAGGDNPEVHGQVEVKTEKRPNFVDRQASTVEYLPGMLHSNCPKGLLPKFSSWSLVKLGPAKSYNFHTGLDQQGFIPGTNYLMPWDIVIRTRAEDEGDLDTNSWPAPNKAIPGKRSAVVMGRGRRRDDIARAFVGFEYEDSRGRRFMCSGPDKVMKVMGSGPKESALKALNSDMPLYILSSSQGRGLKPHYAQLMRLFVVVPDAPLQIILMPQVQPGPPPCPVFYPEKQEITLPPDGLWVLRFPYAYVTERGPCFPPKENVQLMSYKVLRGVLKAVTQ
Regarding B2, the binding result in experiment [2] is on record as “binds”.

Values taken from paper PMC4551919 (Nucleic Acids Research, 2015).
